# B1: Antibody bound to the protein represented by SEQ ID NO: 100 (structural domain SEQ ID NO: 38 - linker - protein molecule SEQ ID NO: 44) (VHH)
# chain: QVQLVESGGGVVQTGGSLRLSCAASGSTFSIGAMGWYRQAPGKQRELVATVNRASRTIYADSVRGRFTISRDNAKNLVYLQMNNLKPEDTAVYYCNVIATSASGRGVTSTSWGQGSQVTVSSGGGGSGGGASGGGGSQVQLVESGGGLVQAGKSLRLSCTASGSIPSIGVMGWHRQAPGKQRELVATISQGGHINYFESVKGRFTISRDNAKNTVYLQMNSLKPEDTGVYYCNAFWLPLRLNDYWGQGTQVTVSSEPKTPKPQSASAA
# notes: tags not described
# B2: VHH antibody consisting of the amino acid sequence represented by SEQ ID NO: 67 (monomer antibody; includes the structural domain SEQ ID NO: 39) (VHH)
# VHH: QLQLVESGGGLVQAGGSLRLSCVASGFPFASSAMAWFRQAPGKEREFVASISYRGITTYYAQPVKGRFTMSRDNAKNTVYLQMNSLKPEDTAVYYCYAKSIWGNAYWGQGTQVTVSP
# notes: also called Monomer Antibody 67
# B3: Antibody bound to the protein represented by SEQ ID NO: 102 (N to C: protein molecule SEQ ID NO: 44 - linker - structural domain SEQ ID NO: 39) (VHH)
# chain: QVQLVESGGGLVQAGKSLRLSCTASGSIPSIGVMGWHRQAPGKQRELVATISQGGHINYFESVKGRFTISRDNAKNTVYLQMNSLKPEDTGVYYCNAFWLPLRLNDYWGQGTQVTVSSGGGGSGGGASGGGGSQLQLVESGGGLVQAGGSLRLSCVASGFPFASSAMAWFRQAPGKEREFVASISYRGITTYYAQPVKGRFTMSRDNAKNTVYLQMNSLKPEDTAVYYCYAKSIWGNAYWGQGTQVTVSPEPKTPKPQSASAA
# notes: One chain; Made in E. coli; tags not described
# Biological target: T1, VLP noro antigen derived from the norovirus GII/4, composed by associating 90 dimers of VP1 each including … (norovirus GII/4, UniProt P54635 1-539)
# T1 construct: Virus-like particle of 90 VP1 dimers (180 copies); also called solid phase VLP
# T1 chain: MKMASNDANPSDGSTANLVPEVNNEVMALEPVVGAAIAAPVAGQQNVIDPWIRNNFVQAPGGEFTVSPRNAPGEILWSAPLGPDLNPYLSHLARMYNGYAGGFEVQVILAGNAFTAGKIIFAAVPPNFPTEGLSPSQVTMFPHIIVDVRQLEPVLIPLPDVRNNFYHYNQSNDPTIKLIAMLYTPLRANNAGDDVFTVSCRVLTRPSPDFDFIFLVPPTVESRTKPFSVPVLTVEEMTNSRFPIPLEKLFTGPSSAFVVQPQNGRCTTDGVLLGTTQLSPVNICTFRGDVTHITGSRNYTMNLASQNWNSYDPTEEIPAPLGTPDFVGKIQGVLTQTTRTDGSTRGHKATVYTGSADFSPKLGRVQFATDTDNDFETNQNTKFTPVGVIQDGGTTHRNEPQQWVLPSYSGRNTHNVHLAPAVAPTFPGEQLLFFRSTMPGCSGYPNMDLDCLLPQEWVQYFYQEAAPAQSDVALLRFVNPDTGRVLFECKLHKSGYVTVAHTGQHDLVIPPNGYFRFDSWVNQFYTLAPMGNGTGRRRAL
# Test: SPR (T200, CM3), VLP noro antigen immobilised, antibody as analyte
Binder,Kd,koff,kon
B1,2.38 nM,0.00698 s⁻¹,2.93e+06 M⁻¹ s⁻¹
B2,,0.0194 s⁻¹,
B3,10.2 nM,0.0109 s⁻¹,1.07e+06 M⁻¹ s⁻¹

# Reference: patent publication US20200062829A1 (PANASONIC INTELLECTUAL PROPERTY MANAGEMENT, published 2020)
